Data reported in PMC4822050, “Hemi-methylated DNA opens a closed conformation of UHRF1 to facilitate its histone recognition” (Nature Communications, 2016).
Values joined by “and” are separate entries in the source; they are usually repeats but may differ in a detail not shown here. Equal values may be shown once. Values belong to the binder of their own block, whether it stands above or below them.

B19: TTD of UHRF1 (residues 134–285) (domain or fragment, human, UniProt Q96T88 134-285, looked up)
chain: LYKVNEYVDARDTNMGAWFEAQVVRVTRKAPSRDEPCSSTSRPALEEDVIYHVKYDDYPENGVVQMNSRDVRARARTIIKWQDLEVGQVVMLNYNPDNPKERGFWYDAEISRKRETRTARELYANVVLGDDSLNDCRIIFVDEVFKIERPGE
notes: 15N- or 13C/15N-labelled for the NMR work; also called tandem Tudor domain; the isolated TTD

Tests used:
Conditions in all cases: both partners purified
[1] = target: B19; assay: ITC; 0.05 mM protein in the cell, 0.5 mM protein or peptide in the syringe, iTC200, 18 °C, 10 mM HEPES pH 8.0, 100 mM NaCl
[2] = target: T1, SRA–Spacer of UHRF1 (residues 414–674) (human, UniProt Q96T88 414-674); assay: as above
T1 sequence (looked up): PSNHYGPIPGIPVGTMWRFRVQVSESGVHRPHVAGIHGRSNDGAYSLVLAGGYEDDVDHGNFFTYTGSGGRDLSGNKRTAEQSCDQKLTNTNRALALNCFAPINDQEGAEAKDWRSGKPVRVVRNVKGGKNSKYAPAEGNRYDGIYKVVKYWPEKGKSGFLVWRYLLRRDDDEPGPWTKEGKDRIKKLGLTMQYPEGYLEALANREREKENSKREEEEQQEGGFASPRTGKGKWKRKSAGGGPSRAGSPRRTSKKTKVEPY

[3] = target: T2, SRA of UHRF1 (residues 414–617) (human, UniProt Q96T88 414-617); assay: as above
T2 construct: human UHRF1, SRA domain, residues 414–617; also called SET-and-RING-associated domain
T2 sequence (looked up): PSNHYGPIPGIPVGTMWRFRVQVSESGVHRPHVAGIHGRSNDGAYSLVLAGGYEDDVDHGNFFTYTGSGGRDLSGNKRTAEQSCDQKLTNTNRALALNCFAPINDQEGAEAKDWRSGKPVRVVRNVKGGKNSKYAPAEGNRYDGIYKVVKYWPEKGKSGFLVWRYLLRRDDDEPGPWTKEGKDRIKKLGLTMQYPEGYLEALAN

[4] = target: T3, TTD–PHD of UHRF1 (residues 134–366) (human, UniProt Q96T88 134-366); assay: as above
T3 sequence (looked up): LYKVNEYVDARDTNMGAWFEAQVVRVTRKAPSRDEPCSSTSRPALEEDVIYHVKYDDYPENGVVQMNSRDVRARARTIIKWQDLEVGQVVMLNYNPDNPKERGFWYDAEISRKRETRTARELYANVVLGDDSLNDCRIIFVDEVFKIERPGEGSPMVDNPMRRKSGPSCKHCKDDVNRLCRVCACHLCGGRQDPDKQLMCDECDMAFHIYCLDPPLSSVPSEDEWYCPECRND

TTD–PHD R295D/R296D = target: T4, TTD–PHD R295D/R296D (human, UniProt Q96T88 134-366, R295D | R296D); assay: as above
T4 sequence (looked up): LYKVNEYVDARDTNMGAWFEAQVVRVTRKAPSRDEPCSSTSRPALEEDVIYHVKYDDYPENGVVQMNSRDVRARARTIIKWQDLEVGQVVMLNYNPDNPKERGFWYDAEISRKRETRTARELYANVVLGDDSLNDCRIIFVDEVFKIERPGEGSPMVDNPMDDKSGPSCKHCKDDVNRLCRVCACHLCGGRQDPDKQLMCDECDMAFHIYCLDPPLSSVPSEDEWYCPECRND

[5] = target: B19; assay: ITC; competition ITC: protein pre-incubated with the competing peptide or protein (1:2 molar ratio if not specified) for 10 min, then as a3
[6] = target: T1, SRA–Spacer of UHRF1 (residues 414–674); assay: pull-down; GST pull-down: 15 μg GST-tagged protein with 40 μg recombinant protein in 500 μl 20 mM HEPES-NaOH pH 8.0, 100 mM NaCl, 5% glycerol, 0.1% Triton X-100, 4 °C, glutathione resin, Coomassie staining; some panels with increasing hm-DNA
[7] = target: B19; assay: NMR solution structure; TTD/Spacer (627–674) 1:1.2, PBS, 0.01% NaN3, pH 7.4, 10% D2O, 20 °C

B1: unmodified peptide of Spacer^642–664 (peptide, UniProt Q96T88 642-664, looked up)
peptide: TGKGKWKRKSAGGGPSRAGSPRR
binding result [1]: binds

B3: PHD of UHRF1 (residues 307–366) (domain or fragment, human, UniProt Q96T88 307-366, looked up)
chain: DDVNRLCRVCACHLCGGRQDPDKQLMCDECDMAFHIYCLDPPLSSVPSEDEWYCPECRND
notes: human UHRF1, PHD, residues 307–366; also called plant homeodomain; the isolated PHD
Kd [3]: 26.7 µM

B4: Linker peptide (289–306) (peptide, UniProt Q96T88 289-306, looked up)
peptide: MVDNPMRRKSGPSCKHCK
notes: also called the Linker
Kd [1]: 24 µM

B5: Spacer of UHRF1 (residues 587–674) (domain or fragment, human, UniProt Q96T88 587-674, looked up)
chain: PGPWTKEGKDRIKKLGLTMQYPEGYLEALANREREKENSKREEEEQQEGGFASPRTGKGKWKRKSAGGGPSRAGSPRRTSKKTKVEPY
notes: also called the Spacer; Spacer peptide
Kd [4]: 10.7 µM
Kd (TTD–PHD R295D/R296D): 2.69 µM
Kd [1]: 1.48 µM and 1.59 µM
stoichiometry N [1]: 1
fold decrease in binding affinity in the presence of the Linker [5]: 2 fold

B6: Spacer S639D (domain or fragment, human, UniProt Q96T88 587-674, looked up)
chain: PGPWTKEGKDRIKKLGLTMQYPEGYLEALANREREKENSKREEEEQQEGGFADPRTGKGKWKRKSAGGGPSRAGSPRRTSKKTKVEPY
binding result [1]: binds

B7: Spacer S651D (domain or fragment, human, UniProt Q96T88 587-674, looked up)
chain: PGPWTKEGKDRIKKLGLTMQYPEGYLEALANREREKENSKREEEEQQEGGFASPRTGKGKWKRKDAGGGPSRAGSPRRTSKKTKVEPY
binding result [1]: binds

B9: Spacer R649A (domain or fragment, human, UniProt Q96T88 587-674, looked up)
chain: PGPWTKEGKDRIKKLGLTMQYPEGYLEALANREREKENSKREEEEQQEGGFASPRTGKGKWKAKSAGGGPSRAGSPRRTSKKTKVEPY
fold decrease in binding affinity against the wild-type Spacer [1]: ~13 fold

B14: Spacer^Δ660–664 (domain or fragment, human, UniProt Q96T88 587-674, looked up)
chain: PGPWTKEGKDRIKKLGLTMQYPEGYLEALANREREKENSKREEEEQQEGGFASPRTGKGKWKRKSAGGGPSRATSKKTKVEPY
binding result [1]: binds

Binder: B19
binding result [2]: binds

Results, then the binder that gave them:

Kd [2]: 7.09 µM
B2: replication focus targeting sequence (RFTS) of DNMT1 (domain or fragment, UniProt P26358 400-533, looked up)
chain: EALPQHKLTCFSVYCKHGHLCPIDTGLIEKNIELFFSGSAKPIYDDDPSLEGGVNGKNLGPINEWWITGFDGGEKALIGFSTSFAEYILMDPSPEYAPIFGLMQEKIYISKIVVEFLQSNSDSTYEDLINKIET
notes: DNMT1, RFTS domain; also called RFTS^DNMT1

binding result [1]: binds
B8: Spacer K648D (domain or fragment, human, UniProt Q96T88 587-674, looked up)
chain: PGPWTKEGKDRIKKLGLTMQYPEGYLEALANREREKENSKREEEEQQEGGFASPRTGKGKWDRKSAGGGPSRAGSPRRTSKKTKVEPY

binding result [1]: binds
B10: Spacer S666D (domain or fragment, human, UniProt Q96T88 587-674, looked up)
chain: PGPWTKEGKDRIKKLGLTMQYPEGYLEALANREREKENSKREEEEQQEGGFASPRTGKGKWKRKSAGGGPSRAGSPRRTDKKTKVEPY

binding result [6]: binds
B11: GST-tagged TTD–PHD of UHRF1 (domain or fragment, human, UniProt Q96T88 134-366, looked up)
chain: LYKVNEYVDARDTNMGAWFEAQVVRVTRKAPSRDEPCSSTSRPALEEDVIYHVKYDDYPENGVVQMNSRDVRARARTIIKWQDLEVGQVVMLNYNPDNPKERGFWYDAEISRKRETRTARELYANVVLGDDSLNDCRIIFVDEVFKIERPGEGSPMVDNPMRRKSGPSCKHCKDDVNRLCRVCACHLCGGRQDPDKQLMCDECDMAFHIYCLDPPLSSVPSEDEWYCPECRND
notes: also called GST-TTD–PHD

binding result [7]: binds
B12: truncated Spacer (residues 627–674) (domain or fragment, human, UniProt Q96T88 627-674, looked up)
chain: REEEEQQEGGFASPRTGKGKWKRKSAGGGPSRAGSPRRTSKKTKVEPY
notes: modified pRSF-Duet-1 vector; unlabelled or 15N-labelled in the NMR samples; residues 643–655 were built in the model

binding result [1]: binds
B13: Spacer^642–674 (domain or fragment, human, UniProt Q96T88 642-674, looked up)
chain: TGKGKWKRKSAGGGPSRAGSPRRTSKKTKVEPY

binding result [1]: binds
B15: Spacer^Δ670–674 (domain or fragment, human, UniProt Q96T88 587-674, looked up)
chain: PGPWTKEGKDRIKKLGLTMQYPEGYLEALANREREKENSKREEEEQQEGGFASPRTGKGKWKRKSAGGGPSRAGSPRRTSKKT

binding result [1]: binds
B16: Spacer^Δ665–669 (domain or fragment, human, UniProt Q96T88 587-674, looked up)
chain: PGPWTKEGKDRIKKLGLTMQYPEGYLEALANREREKENSKREEEEQQEGGFASPRTGKGKWKRKSAGGGPSRAGSPRRKVEPY

binding result [1]: binds
B17: Spacer^Δ655–659 (domain or fragment, human, UniProt Q96T88 587-674, looked up)
chain: PGPWTKEGKDRIKKLGLTMQYPEGYLEALANREREKENSKREEEEQQEGGFASPRTGKGKWKRKSAGGGSPRRTSKKTKVEPY

binding result [1]: binds
B18: Spacer^Δ650–654 (domain or fragment, human, UniProt Q96T88 587-674, looked up)
chain: PGPWTKEGKDRIKKLGLTMQYPEGYLEALANREREKENSKREEEEQQEGGFASPRTGKGKWKRGPSRAGSPRRTSKKTKVEPY

binding result [6]: binds
B20: GST-tagged TTD of UHRF1 (domain or fragment, human, UniProt Q96T88 134-285, looked up)
chain: LYKVNEYVDARDTNMGAWFEAQVVRVTRKAPSRDEPCSSTSRPALEEDVIYHVKYDDYPENGVVQMNSRDVRARARTIIKWQDLEVGQVVMLNYNPDNPKERGFWYDAEISRKRETRTARELYANVVLGDDSLNDCRIIFVDEVFKIERPGE
notes: pGEX-6p-1 derivative vector; also called GST-TTD

binding result [1]: binds
B21: Spacer^Δ642–651 (domain or fragment, human, UniProt Q96T88 587-674, looked up)
chain: PGPWTKEGKDRIKKLGLTMQYPEGYLEALANREREKENSKREEEEQQEGGFASPRAGGGPSRAGSPRRTSKKTKVEPY
